Results on 125 sequences are retold here after the supplement of paper PMC9112550, “Optimization of the antimicrobial peptide Bac7 by deep mutational scanning” (BMC Biology, 2022).
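Also: peptides expressed intracellularly from a pBAD plasmid library in pooled LB shake-flask culture, induced with 0.3% L-arabinose, DNA abundance read by NGS, three biological replicates, DESeq2 with apeglm shrinkage.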

The subject of the data set is Escherichia coli TOP10. Put plainly: shrunken log2 fold change of peptide-encoding DNA abundance (4.5 h post-induction vs induction); higher = less antimicrobial activity (less host growth inhibition). The settings on record: time post-induction: 4.5 h; library: site-saturation at positions 5, 18, 19, 20.
Regarding RRIRCRPPRLPRPRPRPWHPPRP, the “shrunken log2 fold change” value was -0.0323.
As to RRIRGRPPRLPRPRPRPGNTPRP, the “shrunken log2 fold change” value came out at 0.171.
The figure for RRIRNRPPRLPRPRPRPLKWPRP is 0.0542; for RRIRCRPPRLPRPRPRPCTKPRP it is -0.507; for RRIRTRPPRLPRPRPRPYYKPRP it is -0.38.
For the sequence RRIRRRPPRLPRPRPRPWMMPRP, the “shrunken log2 fold change” value was found to be 0.0519.
The figure for RRIRVRPPRLPRPRPRPGAMPRP is 0.0686.
In the case of RRIRARPPRLPRPRPRPLFHPRP it was -0.249.
RRIRWRPPRLPRPRPRPTWQPRP: the “shrunken log2 fold change” value was determined as 0.125.
The figure for RRIRKRPPRLPRPRPRPSKSPRP is -0.141; for RRIRFRPPRLPRPRPRPYQFPRP it is 0.0166; for RRIRKRPPRLPRPRPRPWQPPRP it is 0.0588.
The figure for RRIRGRPPRLPRPRPRPDCLPRP is 0.975; for RRIRARPPRLPRPRPRPCDFPRP it is -0.128; for RRIRGRPPRLPRPRPRPYSYPRP it is -0.0264.
The figure for RRIRSRPPRLPRPRPRPDSFPRP is -0.0457; for RRIRVRPPRLPRPRPRPRIRPRP it is -0.202.
As for RRIRCRPPRLPRPRPRPERGPRP, the “shrunken log2 fold change” value is 0.472.
In the case of RRIRQRPPRLPRPRPRPPGFPRP it was 0.0259; in that of RRIRARPPRLPRPRPRPRYYPRP, -0.116; in that of RRIRLRPPRLPRPRPRPACLPRP, 0.00436.
In the case of RRIRGRPPRLPRPRPRPKMCPRP it was 0.102; in that of RRIRTRPPRLPRPRPRPAVAPRP, 0.422; in that of RRIRERPPRLPRPRPRPLMIPRP, -0.348.
On to RRIRRRPPRLPRPRPRPRWLPRP, for which the “shrunken log2 fold change” value amounted to 0.388.
As to RRIRSRPPRLPRPRPRPFNIPRP, the “shrunken log2 fold change” value was -0.109.
The figure for RRIRSRPPRLPRPRPRPWFDPRP is -0.271.
Take RRIRARPPRLPRPRPRPRMKPRP: the “shrunken log2 fold change” value is 0.457.
The figure for RRIRPRPPRLPRPRPRPGGCPRP is 0.295; for RRIRNRPPRLPRPRPRPIYSPRP it is -0.0185; for RRIRKRPPRLPRPRPRPRRWPRP it is 0.717.
In the case of RRIRRRPPRLPRPRPRPPEKPRP it was 1.6; in that of RRIRKRPPRLPRPRPRPSEKPRP, 0.428; in that of RRIRARPPRLPRPRPRPIAGPRP, 0.163.
In the case of RRIRERPPRLPRPRPRPYTHPRP it was -0.623; in that of RRIRPRPPRLPRPRPRPVWFPRP, 0.0968.
Turning to RRIRRRPPRLPRPRPRPGGNPRP, the “shrunken log2 fold change” value came out at 0.475.
Consider RRIRHRPPRLPRPRPRPWYDPRP, for which the “shrunken log2 fold change” value stood at 0.0351.
The figure for RRIRFRPPRLPRPRPRPRRKPRP is 0.246; for RRIRDRPPRLPRPRPRPIAFPRP it is 0.15.
The figure for RRIRMRPPRLPRPRPRPFGLPRP is -0.0107.
The figure for RRIRLRPPRLPRPRPRPASRPRP is 0.00832; for RRIRTRPPRLPRPRPRPRCKPRP it is 0.0432.
Take RRIRLRPPRLPRPRPRPNFNPRP: the “shrunken log2 fold change” value came out at 0.597.
The figure for RRIRWRPPRLPRPRPRPGRLPRP is -0.0636; for RRIRHRPPRLPRPRPRPCPVPRP it is -0.0628; for RRIRSRPPRLPRPRPRPDEDPRP it is -0.00181.
In the case of RRIRDRPPRLPRPRPRPGPPPRP it was 0.733.
Turning to RRIRPRPPRLPRPRPRPHDLPRP, the “shrunken log2 fold change” value stood at 0.0288.
In the case of RRIRQRPPRLPRPRPRPTSCPRP it was -0.0676; in that of RRIRWRPPRLPRPRPRPCNQPRP, -0.78.
The figure for RRIRERPPRLPRPRPRPYFVPRP is -0.892; for RRIRPRPPRLPRPRPRPHAIPRP it is -0.217; for RRIRPRPPRLPRPRPRPALKPRP it is 0.128.
Turning to RRIRMRPPRLPRPRPRPSNHPRP, the “shrunken log2 fold change” value amounted to 0.00558.
In the case of RRIRRRPPRLPRPRPRPFMMPRP it was -0.173.
The figure for RRIRVRPPRLPRPRPRPNQAPRP is 0.0159; for RRIRERPPRLPRPRPRPYFYPRP it is -0.757.
Turning to RRIRSRPPRLPRPRPRPTYFPRP, the “shrunken log2 fold change” value was -0.563.
In the case of RRIRTRPPRLPRPRPRPKKSPRP it was -0.106; in that of RRIRNRPPRLPRPRPRPWFKPRP, -0.191.
In the case of RRIRDRPPRLPRPRPRPDRLPRP it was 0.0401; in that of RRIRMRPPRLPRPRPRPWDHPRP, 0.0477; in that of RRIRLRPPRLPRPRPRPGQPPRP, 0.187.
In the case of RRIRFRPPRLPRPRPRPYKKPRP it was -0.415; in that of RRIRSRPPRLPRPRPRPEWAPRP, 0.273.
With RRIRSRPPRLPRPRPRPNTQPRP, the “shrunken log2 fold change” value is -0.274.
Regarding RRIRRRPPRLPRPRPRPRKLPRP, the “shrunken log2 fold change” value worked out at 0.253.
On to RRIRRRPPRLPRPRPRPHHLPRP, for which the “shrunken log2 fold change” value is -0.0855.
The figure for RRIRPRPPRLPRPRPRPFNWPRP is -0.118; for RRIRRRPPRLPRPRPRPIKLPRP it is -0.128; for RRIRERPPRLPRPRPRPCLPPRP it is -0.259.
The figure for RRIRIRPPRLPRPRPRPIEHPRP is 0.00487.
Consider RRIRHRPPRLPRPRPRPNFQPRP, for which the “shrunken log2 fold change” value is -0.161.
The figure for RRIRMRPPRLPRPRPRPHSPPRP is -0.114.
Consider RRIRIRPPRLPRPRPRPQGKPRP, for which the “shrunken log2 fold change” value is -0.385.
RRIRLRPPRLPRPRPRPQDYPRP: the “shrunken log2 fold change” value is -0.31.
The figure for RRIRIRPPRLPRPRPRPYVRPRP is -0.199; for RRIRLRPPRLPRPRPRPQKNPRP it is -0.154.
The figure for RRIRQRPPRLPRPRPRPHKFPRP is -0.279; for RRIRLRPPRLPRPRPRPEHEPRP it is 0.13; for RRIRSRPPRLPRPRPRPMQPPRP it is 0.0538.
The figure for RRIRFRPPRLPRPRPRPEVIPRP is 0.0373.
Take RRIRLRPPRLPRPRPRPVTFPRP: the “shrunken log2 fold change” value was -0.0737.
In the case of RRIRMRPPRLPRPRPRPNGIPRP it was 0.0753.
In the case of RRIRIRPPRLPRPRPRPFNEPRP it was -0.331; in that of RRIRRRPPRLPRPRPRPASPPRP, 0.314; in that of RRIRNRPPRLPRPRPRPNTTPRP, -0.209.
As to RRIRDRPPRLPRPRPRPDDAPRP, the “shrunken log2 fold change” value stood at 0.365.
For RRIRRRPPRLPRPRPRPESWPRP, the “shrunken log2 fold change” value came to 1.12.
The figure for RRIRVRPPRLPRPRPRPIWDPRP is 0.0206.
In the case of RRIRYRPPRLPRPRPRPWYPPRP it was -0.485; in that of RRIRGRPPRLPRPRPRPGIQPRP, 0.591.
In the case of RRIRPRPPRLPRPRPRPLEFPRP it was -0.241.
RRIRVRPPRLPRPRPRPHHGPRP: the “shrunken log2 fold change” value is -0.348.
For the sequence RRIRRRPPRLPRPRPRPIHYPRP, the “shrunken log2 fold change” value was -0.359.
On to RRIRVRPPRLPRPRPRPELLPRP, for which the “shrunken log2 fold change” value was determined as 0.0724.
Consider RRIRGRPPRLPRPRPRPSWSPRP, for which the “shrunken log2 fold change” value is 0.425.
The figure for RRIRNRPPRLPRPRPRPPKKPRP is -0.166.
The figure for RRIRARPPRLPRPRPRPNPQPRP is 0.002; for RRIRFRPPRLPRPRPRPHSGPRP it is 0.0508; for RRIRFRPPRLPRPRPRPGSCPRP it is -0.0149.
Turning to RRIRKRPPRLPRPRPRPTVWPRP, the “shrunken log2 fold change” value was found to be 0.548.
The figure for RRIRHRPPRLPRPRPRPSMWPRP is -0.095; for RRIRARPPRLPRPRPRPDMSPRP it is 0.0274.
In the case of RRIRMRPPRLPRPRPRPLQCPRP it was -0.0663.
The figure for RRIRVRPPRLPRPRPRPCFYPRP is -0.511; for RRIRIRPPRLPRPRPRPMNKPRP it is -0.627; for RRIRDRPPRLPRPRPRPEPCPRP it is 0.064.
With RRIRYRPPRLPRPRPRPVYQPRP, the “shrunken log2 fold change” value is -0.341.
Turning to RRIRGRPPRLPRPRPRPWLYPRP, the “shrunken log2 fold change” value was found to be 0.285.
The figure for RRIRHRPPRLPRPRPRPANYPRP is -0.00316; for RRIRLRPPRLPRPRPRPLISPRP it is -0.506.
In the case of RRIRHRPPRLPRPRPRPTNIPRP it was -0.135; in that of RRIRVRPPRLPRPRPRPEYYPRP, 0.0358.
The figure for RRIRHRPPRLPRPRPRPLILPRP is 0.0886; for RRIRPRPPRLPRPRPRPDIDPRP it is -0.144; for RRIRNRPPRLPRPRPRPRTLPRP it is -0.0666.
On to RRIRNRPPRLPRPRPRPDCAPRP, for which the “shrunken log2 fold change” value was 0.315.
The figure for RRIRYRPPRLPRPRPRPEPCPRP is 0.189; for RRIRVRPPRLPRPRPRPCWHPRP it is -0.0327.
In the case of RRIRWRPPRLPRPRPRPQCGPRP it was -0.0434.
The figure for RRIRSRPPRLPRPRPRPGIVPRP is 0.119.
With RRIRTRPPRLPRPRPRPIHLPRP, the “shrunken log2 fold change” value worked out at 0.0312.
In the case of RRIRTRPPRLPRPRPRPPCYPRP it was -0.139.
